Data from the DeepSol protein solubility set.

Experiment: soluble on expression in E. coli; label from the status in PepcDB or PDB records

Sequence | soluble on expression in E. coli
MEFIVCNGCGCSPSKRQFFITACSHVFCETCRTTPTADFCHLCKIPTKTLKMDASLPKNVKKMFGDVGVMSTDIHKRLARVIGFQKIQKSIQLKMENKKSVMRKEQTKKVEKKTEEMHCQLSKLTSFEENNRKKLEDIERENEKLRNLISALELKVASSRDIDDDEFFMQGTPTSSNPSVAGSDVDNDELLDYDLLGLRNRSDSSSSNCSSQSNRGGSLF | not soluble
MEFKDFPLKPEILEALHGRGLTTPTPIQAAALPLALEGKDLIGQARTGTGKTLAFALPIAERLAPSQERGRKPRALVLTPTRELALQVASELTAVAPHLKVVAVYGGTGYGKQKEALLRGADAVVATPGRALDYLRQGVLDLSRVEVAVLDEADEMLSMGFEEEVEALLSATPPSRQTLLFSATLPSWAKRLAERYMKNPVLINVIK | soluble
MEFKEYKGKNVDEAITNACIDLGIEAAKLEYEVIEKGSNGFLGIGSKPAIIKAKKNQSVEDIAREFLNKVFTAMELTVKIDIKIVENEKENIVNINIIGEDMGILIGKRGQTLDSLQYLVSLVINKECEKFNRVKLDTENYRERRKATLENLARNISLKVKRIKKPVALEPMNPYERRIIHSALQNDKFCTTKSEGDEPYRHVVVMLKKDAR | not soluble
MEFRQLKYFIAVAEAGNMAAAAKRLHVSQPPITRQMQALEADLGVVLLERSHRGIELTAAGHAFLEDARRILELAGRSGDRSRAAARGDVGELSVAYFGTPIYRSLPLLLRAFLTSTPTATVSLTHMTKDEQVEGLLAGTIHVGFSRFFPRHPGIEIVNIAQEDLYLAVHRSQSGKFGKTCKLADLRAVELTLFPRGGRPSFADEVIGLFKHAGIEPRIARVVEDATAALALTMAGAASSIVPASVAAIRWPDIAFARIVGTRVKVPISCIFRKEKQPPILARFVEHVRRSAKD | soluble
MEFRVYAGREELAGLVKPMRGGDVEIRIQPVERKVLEFVPLKAETAIEERKSIIVGLDPGITVGIAAIDLDGNIISVYSEKNMALSEIVRFISELGHPIIVATDVNPAPGLVEKIARSFKAQLFVPRESLKVEEKNELLKNLGISVSDDHQRDALEHHHHHH | not soluble
MEFTDIAMELSKKAWQASFHHPFILQLQEGNLEPAIFRYYLIQDAYYLKAFSEIYHLLADKTSNQEMKRLLKQNAQGLVEGELFIRQQFFKELEISDQEMEQHPIAPTCYHYISHIYRQFAEPNLAIAFASLLPCPWLYHDIGKSLNLKPSPNPLYQQWIETYITDELEQQIREEGALVNQLYRESDETDKQKMLDAFHISVHMEAKFWEMAYQHQTWKSDLQSLEKGEEMAGDPLEHHHHHH | soluble
MEGFGMPKLIISGRGGSGKSTLVTLIAHTLKEQKKRVLVVDSDESNIGLSGILGIEPAEKTLMDYLGGKPRVMKKLRSMIRDGETEPELFREKFDLESLSQEFVCWVGSLGLMQIGKIDHAMEGCACPMGAVTRDFLNHVRLEEDQWVLVDTEAGVEHFGRGIVEGADAVVMVVDPSSDAVLLAEKAAKLTHEADKRFGVILNKIDEETEPILTELLTSEGNEIKGVLPYSPAITKMNLKGESLGAYAVKNEVDEIIRELMKCLEHHHHHH | not soluble
MEGLLIHAVLRELEKELPAQNLGLAFPEEGTAAILLKGRTGRLFNLVLHYRPPTPSLALEPGRLQGEPKTPFQRQLQARVKGPLVEASQLKLDRVAFFRFAGEKGFVDAPPSVLVLEATGRNANLLLLDEEGRILGVDRVITKEVNRYRELRPGLPYTPPPPYRKLDPRTLAEEDLLPLLGKPLKEVIRHVDGVGQELLRELARRAGLTPETPLDEAGLGRVYRALKTLVEDPSLRTELSEELRRRWAEEEKEALRKPLLEALDREIRTLKARLGDYQEALERLEEAEALRRRADLLLARLKEVPKGAEKVVLEGFDGKPVEIPLDPALSPQENARKLYDRARRLEELAEKALDLIPKTEARIRELEAEKERLRTLDLEGLLALAQRPKGEKGLKVGLRYTSPSGFLVLVGRNAKENDLLTRAAHSEDLWFHAQGVPGSHVILKTEGKNPPLEDLLFAARLAAYHSKARGERQVPVDYTRKKHVWRPRKAAPGQVLYTQAKTLFVEGLLPEPREEA | soluble
MEHKIVHVGDIPVANDKPFTLFAGMNVLESRDLAMQICEHYVKVTDKLGIPYVFKASFDKANRSSVHSYRGPGLEEGMKIFQELKETFGVKIITDVHTEAQAQPVADVVDVIQLPAFLARQTDLVEAMAKTGAVINVKKPQFMSPGQVGNIVEKFAECGNDKVILCERGSCHGYDNLVVDMLGFGVMKQASNGSPIIFDVTHSLQMRDPSGAASGGRREQTVELAKAGLATGIAGLFIEAHPNPDKARCDGPSALPLDKLEPFLAQMKALDDLIKSFAHIDIR | not soluble
